Experiment: soluble on expression in E. coli; label from the status in PepcDB or PDB records

| Sequence | soluble on expression in E. coli |
| --- | --- |
| MKVLVPVKRLIDYNVKARVKSDGSGVDLANVKMSMNPFDEIAVEEAIRLKEKGQAEEIIAVSIGVKQAAETLRTALAMGADRAILVVAADDVQQDIEPLAVAKILAAVARAEGTELIIAGKQAIDNDMNATGQMLAAILGWAQATFASKVEIEGAKAKVTREVDGGLQTIAVSLPAVVTADLRLNEPRYASLPNIMKAKKKPLDEKTAADYGVDVAPRLEVVSVREPEGRKAGIKVGSVDELVGKLKEAGVI | soluble |
| MTDFQKQFFARLNIEEKQKVSFEDLSNIMYAMAQTVPFENLNVLEKNFKEISQENLKEKILVNNRGGLCYELNPTMYYFLKDAGFDVYLVSGTVYNAANSIWAVDSGHIATILKHHNELYLIEVGFGSYLPLAPVPFSGEVVQSVTGDYRIRKEMTEKGNYMLEMRKNDEFLDQSSTDDWTLGYAFYIEEVDEKKQMQHKKLLLNTMAHHLTKYLLL | not soluble |
| MGSDKIHHHHHHMPYKTLKTIDYEAHHDSKTVGTEYERRIHNYGIFKSGLYPFLIDHQELSQDRRELFITPLREIAIACERIEYNSAELKSKLKELPPIAEELYLKKSLINEITTSNRLSGIAVRRTEVKAALDSINKDNQEQVRFAPMAKMYNKILEDDFQRIESFVDLRKVYNQLLFGLIEKEQMPDGAFFRNRPVSIKNDQQKIIFQLPGNENDLEQRLSNWLKFISNKNIPFMIKGLLAHGYFENIHPFYDGNGRTSRYILSLYLARKLDLVTGLNVAQAIYENRESYEKALLALGDQGNFAEGSFFINDSLSMIENRQRKIIEDLDVNIKQLSRTNKKIQQIYQINSPEYFVLNLLLQSKIFTDNQADGLLDREIVEISENSKHSKRAINLAIKSLEQKKQITTLKKNPFQHSIDIN | not soluble |
| MGSDKIHHHHHHMVSKLLALEAYPKLKDIDFRLLRAVELNMRHHKWVPLEDIARFARMDLESASYRLGKLDKLGLVIRRSDIGYIGYQLTIHGYDALAIRAFAKKGVIEAISTTHIGVGKDADVYVAITPQGEKVAIKFNRIGERTSARKAYYHSDVFADKHHKSWLYVSRLIAKKEHEALVLLSSFAKVPKPIAWNRHAIVMEFIDGVELAELRDTDLTKEEAEEILGKVLDEYEKIVKFGIVHGDMSEFNIVITKDNDILIIDWAQYLTCANPESLGLLKRDISVLLNAFRRRWGVKRDFEEEWKRFYEAWQIGRREKEES | not soluble |
| MGRIKQMTPNVMRLLKACFVEQIPDEVCDEFHLKKDTEHMILITKDGGMPISKIKPLSDSQVLSVLSQILLSLYIGKRELQFSHNDLNPGNLLISETKKKSISYKKDGKSIKIKSHGRFLTLIDLQKSTFDEKEDKGLDCWKLNSRVRDQFLPLVKEDTKKILAKVAEEIEKTTILDWKLPGMLPIQ | not soluble |
| MAHHHHHHMDPNAFLSSFDAIVTLSNTEGPRHNVLEPKFTAREQMQALRESVRNAYKESPSQTAMSQICRCYVFIGFNMLETDEETEGVSEICKAYTLTLFGSKKELLDDVVDIAAHPLEEILRNEVPFVTAEKEYAFVTEFMRVHNALGFYFSNRDVELRINDAKQVLIVAEKAYRAWNDWFHQSFPGHCLMKDIPVLENGTLDRASISPDALPIYIVRFEMDTAFTSTLFFLAQVYTACKMTALASRYCHHTLYHQLLNKMEFSKKDWATNALHLSAFYSSCFDYGKALHCLRAGEYIMPEENANEETLGIVAWAFGKFYLHRLHYYSEVRRNCAPRGHFPDEFEGWWVDFPLDIPPPQPLPAIETFEDARKCFKEANVWFNKALNYYVYDGCCTEHIDIKKDIAQLYAALIPFEENRDRIIAMHQRRIALIELFPSDLNFNAYPTLVRQLLFDLGGMHEEMLEVYIQQKNSPMEGEKPLSDKKINAFADKVQGFYRRFCDTWKEPQTNKIPETIDIDSRLPFFRSLMRLAHLQMKRFFKDPKEEYDNISASIVMFEKAIAFASSNPMNEEADAEVQLAREMATLLPVRQKDLWRVYHNAV | not soluble |
| GMSRTLVLFDIDGTLLKVESMNRRVLADALIEVYGTEGSTGSHDFSGKMDGAIIYEVLSNVGLERAEIADKFDKAKETYIALFRERARREDITLLEGVRELLDALSSRSDVLLGLLTGNFEASGRHKLKLPGIDHYFPFGAFADDALDRNELPHIALERARRMTGANYSPSQIVIIGDTEHDIRCARELDARSIAVATGNFTMEELARHKPGTLFKNFAETDEVLASILTPKHS | soluble |
| MGTVMDVLKGDNRFSMLVAAIQSAGLTETLNREGVYTVFAPTNEAFRALPPRERSRLLGDAKELANILKYHIGDEILVSGGIGALVRLKSLQGDKLEVSLKNNVVSVNKEPVAEPDIMATNGVVHVITNVLQP | soluble |
| LKLTPRQYNDVYEVNYDFINNVRYLMDDVVRGYDYALERYYDFLDVRNDDLRWILSSAQYRRFMRAEHFYRPIYAHENKWHFRIYLVYNNVNFFYYGKPHHYASYCGGHYRTHFNNVSYYKTHYRDHYRHDVYDGHYRIRHDRMTYDMHRRRDFNIAVRPPQKEHHRPATPPQTRPNRPQIHPDRP | not soluble |
| MDIKRYCPVTDSELPADHVYFKFRSEIEAAEAYLGLAISEGIKVRETREILDIIDTVYNSLSDPESKLNDFQEKRLNFTEEDWYDIKEKANNGNRWSLYMFLARSAVDSAVYWSYRMKETEEFKEIVKEEMISKLLKAGYVILRESLGEVRL | soluble |
| VNVLKKDITASPVLSETAPTSAPSEAAAANEIKQPIPSQKAEMSELKKLTDIISPELIEPNLVGETSDDIIDELIQKLSRRGALLSESGFKQAILNREQQGTTAIGMNIAIPHGKSEAVREPSVAFGIKRSGVDWE | not soluble |
| MGSDKIHHHHHHMKLNRIPVVFILVLQFLSCMRKDEVLSTDPSDRLEFSEDTVFFDTLFSSVGSITKRLLVYNPGKNKIRISSVTLAGGSNSAYSVIVNGLNGPSISDIDIRGNDSIYVLVKVLIDPSNQDLPFLVSDSILFYTNTNRQKVLLSAYGQDAHFFGKESIACDAVWVNDKPYVLYDTLQVNTGCTLTIQPGCKIYFHTAAALNVRGTLIAQGSSSEPLLFASDKLSKTAQDDRGQWGGLIFQSSSSGNVISWATIRNSSTAIKLFPVIDADTIAELSLDHTFLLHASVRLIDAQEVDLAGSNLVLSDCPKALLKHTAGCGVWKHCTFANYSSGFFREETNLVLGSNMGSLKMYVLNSILWGDKSNEVTANNTPSLSLQSCIWRSAYMGTNTNVITSNPLFSKPSAFDFSLTAGSSAIDLCTGVGVPDDIAAGNRDSTPDAGAYEFK | not soluble |
| MGSDKIHHHHHHVRKFKIPNMGALLAFEAAARHESFTHAARELFLTESAVSRQINTLESNLGVRLFVRVKQRVMLTRAGKVYSAQVRRSLEQLDRDTLSIIAHGSGGGYLELAVLPTFASQWLIPRLAAFNAQYPDVRVNMGVRTGTFPFAETHFEAAIHYGKPTWPGTSADFLFSEEVVPVCAASLLKRPVQSAADLLDYPLVHSTTRPDGWAAWFANMGIDDNRTMQGVRYELHTMLISAAAAGLGIALVPRFFVDAQLEQLGLVIPLDAPVVADSAYYLVYPTELSHGKPLASFREWLLREAAAYSAVNPELGGPRDMD | not soluble |
| MSSRTANSSSRNDESLRTGQHKENPNYWGFANFPNQVFRRAVKNGFDFTLMVVGRSGLGKSTFINTLFLAEINNLNEKESAPTHPHPSTVRVEEKLVKLVENSVSLNLTLVDTPGFGDAVNNSKCWEPIVNYVESKFFEQFCEETRIDRGEKIVDKCVHLCLYFIEPSGHGLKPIDIELMKHLHGRVNIVPVISKADCLTRDELLRFKKQIVKDAETAEIKLYKFPELEDPYTDKVAIEKLRKALPFAIIGSNMLKEKDGKKIRYREYPWGTVEVENMQHNDFLTLRDMIIRTNLIDMIDVTRNVHYENFRFRQMEGLPKNEKNRDPFTHLEEERRQKEQDLDEKRNTLEKVFTEKTSARKKRSDERMSALEELEQQNKQKIDAKRAEIIRLRHEISELKNGNLTSSQTSLAMYNENNHSQNSTLNSTTKSSPPPTSATSSSSGTMKKRMGGLGLFNRN | not soluble |
| MNIPTTTTKGEQAKSQLIAAALAQFGEYGLHATTRDIAALAGQNIAAITYYFGSKEDLYLACAQWIADFLGEKFRPHAEKAERLFSQPAPDRDAIRELILLACKNMIMLLTQEDTVNLSKFISREQLSPTSAYQLVHEQVIDPLHTHLTRLVAAYTGCDANDTRMILHTHALLGEVLAFRLGKETILLRTGWPQFDEEKAELIYQTVTCHIDLILHGLTQRSLD | soluble |
| SAQFINGTINSWFGNDTHEALERSLNLSKSALNLAADNALGNAVPVQIDLIGAASLPGDMGRVLEHYAGSGFAQLALYNAASGKIEKSINPHKLDQPFPGKARWEKIQRAGSVRDLESIGGVLYAQGWLSAGTHNGRDYALFFRQPVPKGVAEDAVLIEKARAKYAELSYSKKGLQT | not soluble |
| MDMPKPPFVIYKGKVEEEFARLHKDGKSLLKAESKFVQFLGLQELTDRACDHVELANPTKNTIIFNIRTPTSPCFFVKPHVGMIDPGGKATLYFTFKGRCHRVPSDYCWIYSIYQLVVDEKTTAFIKEDEFSSQNLRSAWIKHGRKQVNNILHLASSFKAGKPKFECRDGHRKFLERKIYLNDLGDVENSGKSKTENTTDITPANMKKGKLNKAASSDTMDDLPKTAD | not soluble |
| MKQRHGNSLLTTDTKCISCRLGVPLSPQRRFQAIRIEEVKLRWFAFLIVLLAGCSSKHDYTNPPWNAKVPVQRAMQWMPISQKAGAAWGVDPQLITAIIAIESGGNPNAVSKSNAIGLMQLKASTSGRDVYRRMGWSGEPTTSELKNPERNISMGAAYLNILETGPLAGIEDPKVLQYALVVSYANGAGALLRTFSSDRKKAISKINDLDADEFLDHVARNHPAPQAPRYIYKLEQALDAM | not soluble |
| MFNKASFLTRLVASSVRVSEAAGGLIKNVMAGGDLKIIDKSEHGSGYDPQTEADRRAQYCIVQSLQKHFKNINIIGEEEDTTACPEIEMGFSADVLQMERLMSTELKNIQENDVVVWVDPLDGTSEVALAVKNKNMALLEQVTVLIGIAYKGRPVAGIIHQPYHEKLGRTVWAIQGCGVHGVVPATGNAQKIVVTTRSHLSESVSNALEALKTRNLADSVEKVGGAGFKVLKVLEGCAAYVFASAGCKKWDTCAVEAVLTAAGGTLTDISGRDIRYEPGVQLNNTGGVLATASWVKHKDYIDTIPQEIKNMLPEISSKK | not soluble |
| MGSDKIHHHHHHMPDTRITEDFLGFGLGLRTDHFEYILQHQPDIDWFEVLSENYLVAGGKPRYYLEAIAEQYPVVMHGVSMSIGSSDPLDMDYLKALKKLSNDIQPKWISDHICWTSIHGVNSHDLLPLPYTEETVNHVAQRVRQVQDVLGRRILLENVSSYLSYQDSTMDEWDFLSQVAEAADCLVLLDINNIYVSARNHHFNPLDYLKKIDPRRVQQFHLAGHSDFGDYVIDTHDHDVPPSVWTLYQAALERFGAVSTMIERDANIPEFPALYNELLEAKHIAQLTLPDDPALARSQFGSRSLDDLSKFINTNNASSQKVRA | not soluble |
| MGSDKIHHHHHHMGKLLTPDDLPIVRGRVYHLDLAPEELARRVIVVGDPDRVPVLAEELLALREVDRFHRGFRTITGVTAETGQRVSFVTSGIGAPSTEIVLNELAALNEVDFASMTRRERWQPLTLVRLGTSGGLNPVTPVGTLILTDYVVGLDNTALYYDIPLPDEACALLEEKVGSVLTGTELPGARFAGKIAPYAARSDRGLLASLTAAASTLELNWTRGLTISSAGFFAEQGRGVARVGTTQVNLLDAFERLASPWPGLELQNMEMEAGFFLHFLGGMRYRAAVVCVVINQRSSGVFMADYRRQVLDGARLILRAFKEYGDARAKSGALA | not soluble |
